According to patent US10106582B2, “Complex-formation-modulating agents and uses therefor” (Factor Therapeutics Limited, priority 2012, dated 2018):
Where no end group is shown, it is not given here.

Target: T1, IGF-II (Homo sapiens, UniProt P01344)
T1 construct: purchased GroPep
Assay: VN-peptide array: binding of IGF-II to immobilized overlapping 16-mer VN peptides
Settings: relative spot intensity on VN-peptide array after IGF-II incubation, vs average intensity of negative controls (TotalLab)
Text: (§1) The inventors designed small-molecule VN-peptides that could potentially disrupt the formation of the IGF-I:IGFBP:VN trimeric or the IGF-II:VN dimeric complexes by binding to the IGFBPs and/or IGF-II and preventing their association with VN within the complex. To design peptides, the binding sites of IGFBP-3/-5 and IGF-II on VN were first determined using VN-peptide arrays. The entire VN protein sequence, excluding the signal peptide (residues 1-19), was divided into overlapping 16-mer peptides with 3AA frameshift/offset (for peptide sequences refer to Table 6) and immobilized onto cellulose membranes (peptide spotting was outsourced to PepMetric Technologies Inc). For a schematic of the arrangement of VN peptides and controls refer to FIG. 2. The resultant peptide arrays were incubated either with IGFBP-3, IGFBP-5 or IGF-II ligands, probed with the respective antibodies, the membranes developed using ECL, and imaged using the ChemiDoc™ XRS system (BioRad). The spots on the membrane were analysed using TotalLab array quantification software (TotalLab Ltd, Newcastle, England) identifying positive peptide spots by comparing each spot to the combined intensities of the negative controls.
(§2) The entire VN protein sequence, excluding the signal peptide (residues 1-19), was divided into overlapping 16-mer peptides with 3 amino acid (AA) frameshift/offset. This yielded 148 overlapping peptides covering the entire VN sequence (residues 20-478) (Table 6) with a resolution of 3 AA. Peptide synthesis and spotting onto a cellulose membrane were outsourced to PepMetric Technologies Inc. (Richmond, BC, Canada). For a diagrammatic illustration of the strategy used to divide an example amino acid sequence into peptides and to spot them onto the membrane, please refer to http://www.pepmetric.com/html/Pep-Overlap.html. The VN-overlapping peptides were generated using FMOC (9-fluorenylmethoxycarbonyl) Solid-Phase SPOT synthesis onto PEG-grafted amine-functionalized cellulose membrane (Whatman® 540 filter paper). The peptides were spotted onto the cellulose membrane in a 10×16 grid with each peptide being 10˜50 nM in concentration with >70% purity. Finally, these membranes were acetylated in order to cap the free ends of the spotted peptides preventing them from degradation during shipping and storage.
(§3) Along with the VN-peptides these membranes were also spotted with a positive control (i.e., universal binding peptides tested by the manufacturer to be positive for antibodies from goat, mouse, rat and chicken) and a negative control (ie. non-binding peptides as well as BSA) controls. For a schematic of the arrangement of VN-peptides and controls refer to FIG. 2 and for the sequence of each peptide corresponding to the grid number refer to Table 6. Four such replicate membranes were prepared and stored at room temperature in a clip sealed plastic bag. Long-term storage was at −20° C.
(§4) Methanol or ethanol was used to enhance the rehydration of peptide spots that might be hydrophobic. The peptides spotted onto the membranes were activated by incubating in 3 mL of 70% ethanol for five mins. The membranes were subsequently washed three times, 10 minutes each, in 10 mL TBS (Tris Buffered Saline; 8 g NaCl, 0.2 g KCl and 6.1 g Tris Base into 1000 mL of milliQ water, pH 7) with gentle rocking. Membrane blocking was performed by incubating in 10 mL casein-based membrane blocking buffer (MBS; Sigma-Aldrich) overnight at 4° C. The following day, the membranes were washed twice, 10 minutes each, in 10 mL TBS-T (TBS+0.05% Tween-20; pH 7).
(§5) Ligands used to test binding to VN-peptides were IGFBP-3, IGFBP-5 and IGF-II. For ligand binding, four separate solutions of 1 μg/mL ligand in 10 mL MBS buffer were prepared and each membrane was incubated in one of the four ligand solutions overnight at 4° C., with gentle rocking. […] The following day, the membranes were washed three times, 10 minutes each, in 10 mL TBS-T. […]

T1 sequence (P01344 25-91 limits assumed): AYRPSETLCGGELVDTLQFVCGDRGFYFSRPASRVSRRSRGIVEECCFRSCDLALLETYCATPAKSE

Row | Intensity (against −ve control), IGFII | Sequence
1 | 17-IGF-II fold-change | LFSSEESNLGANNYDD (not fully specified (N-terminus)) [Peptide 7A]
2 | 12-IGFII fold-change | DELCSYYQSCCTDYTA (not fully specified (N-terminus); cysteine pairing not given here) [Peptide 1B]
3 | 18-IGF-II fold-change | SEESNLGANNYDDYRM (not fully specified (N-terminus)) [Peptide 7B]
4 | 1.5-IGFII fold-change | TRQPQFISRDWHGVPG (not fully specified (N-terminus)) [Peptide 6C]
5 | 12-IGF-II fold-change | SNLGANNYDDYRMDWL (not fully specified (N-terminus)) [Peptide 7C]

Target: T2, IGFBP-3 (Homo sapiens, UniProt P17936)
T2 construct: purchased GroPep
Assay: VN-peptide array: binding of IGFBP-3 to immobilized overlapping 16-mer VN peptides
Settings: relative spot intensity on VN-peptide array after IGFBP-3 incubation, vs average intensity of negative controls (TotalLab)
Text: as §1, §2, §3, §4, §5

T2 sequence (P17936 28-291): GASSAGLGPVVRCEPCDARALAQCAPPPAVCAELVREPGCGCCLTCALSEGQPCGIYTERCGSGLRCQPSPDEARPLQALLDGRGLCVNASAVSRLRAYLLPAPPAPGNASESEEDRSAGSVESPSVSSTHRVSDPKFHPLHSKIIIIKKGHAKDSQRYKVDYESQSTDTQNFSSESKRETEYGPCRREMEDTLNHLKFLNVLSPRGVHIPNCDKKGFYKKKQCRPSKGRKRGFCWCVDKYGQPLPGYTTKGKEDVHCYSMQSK

Row | Intensity (against −ve control), BP3 | Sequence
6 | 12-BP3 fold-change | QYWEYQFQHQPSQEEC (not fully specified (N-terminus)) [Peptide 4B]
7 | 1.5-BP3 fold-change | FEHFAMMQRDSWEDIF (not fully specified (N-terminus)) [Peptide 5A]
8 | 6-BP3 fold-change | KGKQYWEYQFQHQPSQ (not fully specified (N-terminus)) [Peptide 4A]
9 | 4.5-BP3 fold-change | FAMMQRDSWEDIFELL (not fully specified (N-terminus)) [Peptide 5B]
10 | 4.5-BP3 fold-change | MQRDSWEDIFELLFWG (not fully specified (N-terminus)) [Peptide 5C]
11 | 2.5-BP3 fold-change | DSWEDIFELLFWGRTS (not fully specified (N-terminus)) [Peptide 5D]
